# Source: the DeepSol protein solubility set
# Assay: soluble on expression in E. coli; label from the status in PepcDB or PDB records
row,Sequence,soluble on expression in E. coli
1,MGSDKIHHHHHHMDEIARFLRSYPPFDRLPEQVVHQIAGELQIEFVRAGQTILTKGGEPSSFLYIVCKGSVDLLRSEDQVVDTLGPGEAFGHPSLIRGQPPLVTVRAHTDTLLYLLPGAIFHRLRAEQPQFAAFFAASVIERLGYALQSRQSESNPALFQTRLRDLVARPPVSISPEATVGDAARLMRDERISSLIVEHTPIGIITDRDLRNRVLAEGLPDTTPVRQVMSAPATTIAADALAFEGLLLMLERGIHHLPLVEGDRVVGVVTHTDILRRQSNSPLFLPRLLQRATSLADLRRYTDQVADAVFTLTAAGARVSDIGRVVAVAHDALLQRLIHDAEAQLGPPPVPYAWLVLGSEGRYEQTLRTDQDNALVYDDSASADDVRYFEQLATLVVDWLVECGFPRCPGNIMATNPEWRQSLATWQRYFHRWIEIPDEESLLRIAIFFDYRQVYGQLPAEPVLRTITQHAAEHRIFMARLARAALRQPAPLTFFRQVALERRGDPRDL,not soluble
2,MIGGSGRFLVNLESLNGVESIGNLTKHRTAPVVLKTSTGYLVRYVPVISGEALAHAYQASLVDIAKKEGLPVGNLSSQYEFIKFSTDEALKIEGIKEPKDYNDARRFEVEVMLKDVIADVGGFMYAGSAPVRRTSRIKLGYMIPALRGDEIPAQLEAQFHVRFSNKPVKGSQAIFNVEVSSALYTFSFELDEDLIAVPSTVGEKVKGEEELERQKARRVDSAIKALYSLLAGNFGGKRSRFLPSMKLMSLVVVKTDFPFIPEPGHDDSYIKTTVMRLEKAKSVLNGNVAKVYVINNEGIEVGEGATVLSSVEDLVAKLKEK,not soluble
3,MSAKRCASYYNATIKQESDYPELEGDIHVDVTIIGGGFTGVATAVELSEKGYKVALLEANKIAWGATGRNGGQVTGSLSGDAAMTKQLRRHLGQDAEDYVWNLRWRGHDIIKNRVAKYGIDCDLKFGHIQTAYHPGHMQELQQMFDEANRRGMGEFMTLVPAQEMSAYLASPLYHGGLVNRRNMHLHSVNLCLGEARAAASLGAQIFEHSQVLDIQQAELATVVTPKGTVKANSVLIAGNAYHKLGRPKLRGMLFPASLGNCATAKLPEELAKQLNPQNLAVYDCRFVLDYYRLTADNRLMFGGGTNYSGRDPKNVAAELRPAIERTFPQLKGVDIEFAWAGMAGIVINRIPQLGKISPNIFYCQGYSGHGVATSHIMAEIMGQAIDGQMQEFDLFAAMRHIRIPLNEWFGNQALALGMLYYTLRENWRLEHHHHHH,not soluble
4,MHHHHHHMELSLASITVPLESIKPSNILPVTVYDQHGFRILFHFARDPLPGRSDVLVVVVSMLSTAPQPIRNIVFQSAVPKVMKVKLQPPSGTELPAFNPIVHPSAITQVLLLANPQKEKVRLRYKLTFTMGDQTYNEMGDVDQFPPPETWGSL,soluble
5,MDWDLITERNIQLFIQLAGLAERPLATNMFWRQGQYETYLNYHNGRIHLCQILKQTFLDEELLFKALANWKPAAFQGIPQRLFLLRDGLAMSCSPPLSSSAELWLRLHHRQIKFLESQCVHG,not soluble
6,MHIQIDGIPIEILRKPIKNLNLRIYPPDGLVKVSVPLKYSEQLIKQQLQEKSKWIRAQCEQIRARSFYREPSLQTGATIPFKGKSYLLIVEEHYGPSQILIKNELIYCYTKPDLTPQQKQNILDRWYRKEMNLVIPRLIQQWEAIMKVKINQWGIKKMKTRWGSCNPRAQRIWLNLNLIKKPLECLEYVLVHEMVHILEASHNKRFYALMTQFMPKWQEYQRILEGTPNASTFARLEHHHHHH,not soluble
7,MGSDKIHHHHHHMIIPHRKPCIESQIKTSGNLDELKMIINDLLYSEKEIQILPSGNSAIHIASEIVSKLNPNSKTLIPDMGGWKGFETYSKLSGLSIEKLKTNLGVVNLEILEEKIKECSAKSLFLTSLAGYLAEQPLKEIAKICSENDCLFIEDVSGKIGGDCGYGDMVVCSTGSPKIINCEYGGFLGFSKKINENLKDKHLKEDIKNLLKTYKMPDIYGKMIEETLISKKSYELCIKFSNIVKENMENAYFKDSQGVSVFLSYENPKEIAKNIDKSVKLNNGKSILTMCPLYERILRKGVVLEIKKMDIHKISENEIYEILNFF,not soluble
8,MKLKTTLFGNVYQFKDVKEVLAKANELRSGDVLAGVAAASSQERVAAKQVLSEMTVADIRNNPVIAYEDDCVTRLIQDDVNETAYNQIKNWSISELREYVLSDETSVDDIAFTRKGLTSEVVAAVAKICSNADLIYGAKKMPVIKKANTTIGIPGTFSARLQPNDTRDDVQSIAAQIYEGLSFGVGDAVIGVNPVTDDVENLSRVLDTIYGVIDKFNIPTQGCVLAHVTTQIEAIRRGAPGGLIFQSICGSEKGLKEFGVELAMLDEARAVGAEFNRIAGENCLYFETGQGSALSAGANFGADQVTMEARNYGLARHYDPFIVNTVVGFIGPEYLYNDRQIIRAGLEDHFMGKLSGISMGCDCCYTNHADADQNLNENLMILLATAGCNYIMGMPLGDDIMLNYQTTAFHDTATVRQLLNLRPSPEFERWLESMGIMANGRLTKRAGDPSLFF,soluble
9,VSLDKKLMPVPDGHPDVFDREWPLRVGDIDRAGRLRLDAACRHIQDIGQDQLREMGFEETHPLWIVRRTMVDLIRPIEFGDMLRCRRWCSGTSNRWCEMRVRVDGRKGGLIESEAFWIHVNRETEMPARIADDFLAGLHRTTSVDRLRWKGYLKPGSRDDASEIHEFPVRVTDIDLFDHMNNAVYWSVIEDYLASHAELLRGPLRVTIEHEAPVALGDKLEIISHVHPAGSTEIFGPGLVDRAVTTLTYVVGDEPKAVASLFNL,soluble
10,MKDFLRLELPVLPLRNTVVLPHTTTGVDVGRLKSKRAVEEALSADRLLFLVTQKDPEVDDPAPEDLYAVGTLAVVKQAMRLPDGTLQVMVEARSRARLLSYVAAPYLRAVGEAIPEPPLKDPELARVLVNEVQEAFERYLQNHKTLRLDRYQQEAVKSTRDPAILADLVAHHATWTLEEKQTILETPEVEERLKRVLALLLRDLERFELDKKIAARVKEQMDQNQREYYLREQMKAIQKELGGGEDFLTEIEELRERIEKKGMPEPVKEKALKELKRLERMQPGSPEATVSRTYLDWLLEVPWTEADPEVLDISVTKRVLDEDHYGLKEVKERILEYLAVRQLTQGKEVKGHAPILCFVGPPGVGKTSLGKSIARSMNRRFHRISLGGVRDEAEIRGHRRTYIGALPGKIIQGMKQVGVVNPVFLLDEIDKLSSDWRGDPAAALLEVLDPEQNHTFTDHYLDVPYDLSKVFFITTANTLSTIPRPLLDRMEVIEIPGYTLHEKRAIARYFRWPFQVKEAGLEGRLEITDRAIERIVQEYTREAGVRNLDRELSKVARKAAKDYLEKPWEGVRVVDAEDLEAYLGVPKYRPDRAEKEPQVGAAQGLAWTPYGGTLLTIEAVAVPGTGKVNLTGNLGEVMKESDHAVLTYLRVHREEWGLPEGFHKDYDLHIHVPEGATPKDGPSAGITIATALASALTGRPVRMDIAMTGEITLRGRVLPIGGVKEKLLAAHQAGIHRVILPKENAAELKEVPEEILKDLEIHFVEEVGEVLKLLLLPPPPPPAVQPDRPQPGVGA,soluble
11,AEAAAAQAPAAGPGQMSFTFASPTQVFFNSANVRQVDVPTQTGAFGILAAHVPTLQVLRPGLVVVHAEDGTTSKYFVSSGSVTVNADSSVQLLAEEAVTLDMLDLGAAKANLEKAQSELLGAADEATRAEIQIRIEANEALVKALE,soluble
12,GSMPRVVPDQRSKFENEEFFRKLSRECEIKYTGFRDRPHEERQTRFQNACRDGRSEIAFVATGTNLSLQFFPASWQGEQRQTPSREYVDLEREAGKVYLKAPMILNGVCVIWKGWIDLHRLDGMGCLEFDEERAQQEDALAQQ,soluble
13,MGHHHHHHSHMKALSPVRGCYEAVCCLSERSLAIARGRGKGPAAEEPLSLLDDMNHCYSRLRELVPGVPRGTQLSQVEILQRVIDYILDLQVVLAEPAPGPPDGPHLPIQTAELAPELVISNDKRSFCH,not soluble
14,MIKILDASAFIHGYNPSIEDGEHYTTNGIVSEVVSKEDIVKLAIEYGKLKILDPKPETIEKVVKTSIETGDTISNNDIEILALAIDLGGTLYTDDYGLQNVSKKLKINYENIVSAGSKDDFVWKKICKGCKKMYPINYLDEECEVCGSPLYRKMVKNRLKKGKKFYDKKKKPKKLFLEHHHHHH,soluble
15,MGSDKIHHHHHHMKIDTLGVQAFVAIADGGSFRQAADTLHVTQTAITQRLRKLESFLGVALVERTTRRTTLTEIGRRFLPQARRLLNELSDALTEIRETGLSQRGDVTIACVPTVGVQYLPRILRAFSGHRPHDRVKILDHASASVLQAVLRREAEFGISIAGDQHPELVSVPLTHDPYVLVCRDDHPLAKRRRIRWAALQPHPLIFAGEVSGNRGLLDGALKTSGVSLHSFYEVQRSSTALGLVAEGLGAAVVPKLAVQKNAYPMIRTIELVEPSVSRTLVLVKRKAAQLSPAAQALYDMIVERATPGR,not soluble
16,MSVLDALWEDRDVRFDLSAQQMKTRPGEVLIDCLDSIEDTKGNNGDRGRLLVTNLRILWHSLALSRVNVSVGYNCILNITTRTANSKLRGQTEALYILTKCNSTRFEFIFTNLVPGSPRLFTSVMAVHRAYETSKMYRDFKLRSALIQNKQLRLLPQEHVYDKINGVWNLSSDQGNLGTFFITNVRIVWHANMNDSFNVSIPYLQIRSIKIRDSKFGLALVIESSQQSGGYVLGFKIDPVEKLQESVKEINSLHKVYSASPIFGVDYEMEEKPQPLEALTVEQIQDDVEIDSDGHTDAFVAYFADGNKQQDREPVFSEELGLAIEKLKDGFTLQGLWEVMS,soluble
17,MSLTSHLLKAEIHCHLEGAAPPALVVKQAEKYGIDTSGFLRDGQYVWSDFAEFIQCYDAVAQVFKSDEDYAVLTETYLTELAEANTIYSELIISPDHGDRIGLGADAYLAGVAEGIRIAKEKTGIETRIIVTGERHFGPERVIAAAEYAARIRHPLVTGFNMAGEERMGRVADYARAFDIARDAGLGLTIHAGEVCGPESVADALDLVKPSRIGHGVRAIEDAALISRLVETGTVLEVCPGSNIALSVYPDFASHPLKALSDAGVRVCISSDDPPFFFTSLAREYALAADAFGFNDAEINRMTRTALECAFVDEATRERLLARLGDAEGHHHHHH,soluble
18,MNNQKQQKPTLSGQRFKTRKRDEKERFDPTQFQDCIIQGLTETGTDLEAVAKFLDASGAKLDYRRYAETLFDILVAGGMLAPGGTLADDMMRTDVCVFAAQEDLETMQAFAQVFNKLIRRYKYLEKGFEDEVKKLLLFLKGFSESERNKLAMLTGVLLANGTLNASILNSLYNENLVKEGVSAAFAVKLFKSWINEKDINAVAASLRKVSMDNRLMELFPANKQSVEHFTKYFTEAGLKELSEYVRNQQTIGARKELQKELQEQMSRGDPFKDIILYVKEEMKKNNIPEPVVIGIVWSSVMSTVEWNKKEELVAEQAIKHLKQYSPLLAAFTTQGQSELTLLLKIQEYCYDNIHFMKAFQKIVVLFYKAEVLSEEPILKWYKDAHVAKGKSVFLEQMKKFVEWLKNAEEESESEAEEGD,soluble
19,MEFTDIAMELSKKAWQASFHHPFILQLQEGNLEPAIFRYYLIQDAYYLKAFSEIYHLLADKTSNQEMKRLLKQNAQGLVEGELFIRQQFFKELEISDQEMEQHPIAPTCYHYISHIYRQFAEPNLAIAFASLLPCPWLYHDIGKSLNLKPSPNPLYQQWIETYITDELEQQIREEGALVNQLYRESDETDKQKMLDAFHISVHMEAKFWEMAYQHQTWKSDLQSLEKGEEMAGDPLEHHHHHH,soluble
20,MSKLFGNKSQRDLKEVKPFVDKIKVAYGEIERLSDDDLRGRTAILRQKIQDYVKDERAEIDKLKVEVEGKDLDEREEIWAQVDKLEKEILDKMEVVLDEILPEAFAIIKDTARRFAQNETIRVKATDLDRDLAINHDFVSIEGDTAVYQNHWVAGGNEILW,not soluble
21,MALLAEHLLRPLPADKQIETGPFLEAVSHLPPFFDCLGSPVFTPIKADISGNITKIKAVYDTNPTKFRTLQNILEVEKEMYGAEWPKVGATLALMWLKRGLRFIQVFLQSICDGERDENHPNLIRVNATKAYEMALKKYHGWIVQKIFQAALYAAPYKSDFLKALSKGQNVTEEECLEKVRLFLVNYTATIDVIYEMYTRMNAELNYKV,soluble
